The values that follow come from publication PMC5802837, “Lymphocyte-specific protein 1 regulates mechanosensory oscillation of podosomes and actin isoform-based actomyosin symmetry breaking” (Nature Communications, 2018).

Holding throughout (assay): co-IP; anti-GFP immunoprecipitation (µMACS anti-GFP Microbeads) from lysates of macrophages expressing GFP-fused constructs (500 mM NaCl, 2% Triton X-100, 50 mM Tris-HCl pH 8.0), washes with RIPA and high-salt RIPA; GFP alone as control; western blot of endogenous partners, densitometry
Background: In western blotting, separated proteins are transferred to a membrane and probed.

Experiment [1] addresses supervillin construct SV1-830-GFP (UniProt O46385).
The target in experiment [2] is GFP-fused full length LSP1 (human) (UniProt P33241).
For experiment [3], the target named is T1, supervillin construct SV1-830-GFP (UniProt O46385-2 1-830).
T1 construct: supervillin, N-terminal region, residues 1-830; as far as recalled the Luna laboratory constructs are bovine supervillin; also called GFP-SV1-830; GFP-supervillin 1-830; source: primary human macrophages, transfected, in lysate
The note with it: partners not purified.

Consider “Ser19 phosphorylated myosin light chain (pMLC), endogenous (from UniProt P24844 1-172) (natural protein)”, for which the coprecipitated amount relative to LSP1-GFP in experiment [1] was 9 fold.

Take “α-cardiac actin, endogenous (from UniProt P68032 1-377) (natural protein)”: the coprecipitated α-cardiac actin relative to SV1-830-GFP in experiment [2] worked out at 0.33 fold.

B1: myosin IIA, endogenous (natural protein, UniProt P35579 1-1960, looked up)
chain: MAQQAADKYLYVDKNFINNPLAQADWAAKKLVWVPSDKSGFEPASLKEEVGEEAIVELVENGKKVKVNKDDIQKMNPPKFSKVEDMAELTCLNEASVLHNLKERYYSGLIYTYSGLFCVVINPYKNLPIYSEEIVEMYKGKKRHEMPPHIYAITDTAYRSMMQDREDQSILCTGESGAGKTENTKKVIQYLAYVASSHKSKKDQGELERQLLQANPILEAFGNAKTVKNDNSSRFGKFIRINFDVNGYIVGANIETYLLEKSRAIRQAKEERTFHIFYYLLSGAGEHLKTDLLLEPYNKYRFLSNGHVTIPGQQDKDMFQETMEAMRIMGIPEEEQMGLLRVISGVLQLGNIVFKKERNTDQASMPDNTAAQKVSHLLGINVTDFTRGILTPRIKVGRDYVQKAQTKEQADFAIEALAKATYERMFRWLVLRINKALDKTKRQGASFIGILDIAGFEIFDLNSFEQLCINYTNEKLQQLFNHTMFILEQEEYQREGIEWNFIDFGLDLQPCIDLIEKPAGPPGILALLDEECWFPKATDKSFVEKVMQEQGTHPKFQKPKQLKDKADFCIIHYAGKVDYKADEWLMKNMDPLNDNIATLLHQSSDKFVSELWKDVDRIIGLDQVAGMSETALPGAFKTRKGMFRTVGQLYKEQLAKLMATLRNTNPNFVRCIIPNHEKKAGKLDPHLVLDQLRCNGVLEGIRICRQGFPNRVVFQEFRQRYEILTPNSIPKGFMDGKQACVLMIKALELDSNLYRIGQSKVFFRAGVLAHLEEERDLKITDVIIGFQACCRGYLARKAFAKRQQQLTAMKVLQRNCAAYLKLRNWQWWRLFTKVKPLLQVSRQEEEMMAKEEELVKVREKQLAAENRLTEMETLQSQLMAEKLQLQEQLQAETELCAEAEELRARLTAKKQELEEICHDLEARVEEEEERCQHLQAEKKKMQQNIQELEEQLEEEESARQKLQLEKVTTEAKLKKLEEEQIILEDQNCKLAKEKKLLEDRIAEFTTNLTEEEEKSKSLAKLKNKHEAMITDLEERLRREEKQRQELEKTRRKLEGDSTDLSDQIAELQAQIAELKMQLAKKEEELQAALARVEEEAAQKNMALKKIRELESQISELQEDLESERASRNKAEKQKRDLGEELEALKTELEDTLDSTAAQQELRSKREQEVNILKKTLEEEAKTHEAQIQEMRQKHSQAVEELAEQLEQTKRVKANLEKAKQTLENERGELANEVKVLLQGKGDSEHKRKKVEAQLQELQVKFNEGERVRTELADKVTKLQVELDNVTGLLSQSDSKSSKLTKDFSALESQLQDTQELLQEENRQKLSLSTKLKQVEDEKNSFREQLEEEEEAKHNLEKQIATLHAQVADMKKKMEDSVGCLETAEEVKRKLQKDLEGLSQRHEEKVAAYDKLEKTKTRLQQELDDLLVDLDHQRQSACNLEKKQKKFDQLLAEEKTISAKYAEERDRAEAEAREKETKALSLARALEEAMEQKAELERLNKQFRTEMEDLMSSKDDVGKSVHELEKSKRALEQQVEEMKTQLEELEDELQATEDAKLRLEVNLQAMKAQFERDLQGRDEQSEEKKKQLVRQVREMEAELEDERKQRSMAVAARKKLEMDLKDLEAHIDSANKNRDEAIKQLRKLQAQMKDCMRELDDTRASREEILAQAKENEKKLKSMEAEMIQLQEELAAAERAKRQAQQERDELADEIANSSGKGALALEEKRRLEARIAQLEEELEEEQGNTELINDRLKKANLQIDQINTDLNLERSHAQKNENARQQLERQNKELKVKLQEMEGTVKSKYKASITALEAKIAQLEEQLDNETKERQAACKQVRRTEKKLKDVLLQVDDERRNAEQYKDQADKASTRLKQLKRQLEEAEEEAQRANASRRKLQRELEDATETADAMNREVSSLKNKLRRGDLPFVVPRRMARKGAGDGSDEEVDGKADGAEAKPAE
notes: non-muscle myosin IIA heavy chain, human, precipitated and detected with anti-myosin IIA antibodies; also called non-muscle myosin IIA; source: endogenous, primary human macrophages (lysate or fixed cells)
On to B1, for which, in experiment [3], the “coprecipitated amount relative to LSP1-GFP” value is 1.6 fold.
